# In patent publication US20250152729A1 (CANCER RESEARCH TECHNOLOGY, published 2025):
# Like-named read-outs stand apart in the source and are kept apart here.
# T1: mouse SEMA4A expressed on expi293 cells (UniProt ID Q62178) (mouse, UniProt Q62178 33-760)
# T1 construct: Transient transfection in expi293 cells
# T1 sequence: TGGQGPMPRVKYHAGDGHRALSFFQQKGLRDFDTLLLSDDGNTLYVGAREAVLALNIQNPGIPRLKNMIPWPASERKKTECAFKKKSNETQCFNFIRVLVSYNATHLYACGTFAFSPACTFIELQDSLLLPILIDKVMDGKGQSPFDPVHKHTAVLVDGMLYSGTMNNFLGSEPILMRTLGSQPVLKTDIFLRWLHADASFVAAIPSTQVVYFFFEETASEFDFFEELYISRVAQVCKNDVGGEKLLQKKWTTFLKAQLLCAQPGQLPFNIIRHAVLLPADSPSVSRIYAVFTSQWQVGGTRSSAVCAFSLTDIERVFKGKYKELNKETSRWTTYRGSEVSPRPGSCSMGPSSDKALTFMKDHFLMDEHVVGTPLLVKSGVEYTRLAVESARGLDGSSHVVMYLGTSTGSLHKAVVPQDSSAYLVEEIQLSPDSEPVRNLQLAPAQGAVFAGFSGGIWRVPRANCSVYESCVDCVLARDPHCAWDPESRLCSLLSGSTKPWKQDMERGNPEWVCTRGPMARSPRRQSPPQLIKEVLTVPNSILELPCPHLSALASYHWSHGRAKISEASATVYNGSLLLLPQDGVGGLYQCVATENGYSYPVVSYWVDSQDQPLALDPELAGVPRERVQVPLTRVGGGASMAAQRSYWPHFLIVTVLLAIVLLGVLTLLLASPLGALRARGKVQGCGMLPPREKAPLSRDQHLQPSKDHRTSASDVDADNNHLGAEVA
# T2: human SEMA4B expressed on expi293 cells (human, UniProt Q9NPR2 44-837)
# T2 construct: whole, on cells
# T2 sequence (looked up): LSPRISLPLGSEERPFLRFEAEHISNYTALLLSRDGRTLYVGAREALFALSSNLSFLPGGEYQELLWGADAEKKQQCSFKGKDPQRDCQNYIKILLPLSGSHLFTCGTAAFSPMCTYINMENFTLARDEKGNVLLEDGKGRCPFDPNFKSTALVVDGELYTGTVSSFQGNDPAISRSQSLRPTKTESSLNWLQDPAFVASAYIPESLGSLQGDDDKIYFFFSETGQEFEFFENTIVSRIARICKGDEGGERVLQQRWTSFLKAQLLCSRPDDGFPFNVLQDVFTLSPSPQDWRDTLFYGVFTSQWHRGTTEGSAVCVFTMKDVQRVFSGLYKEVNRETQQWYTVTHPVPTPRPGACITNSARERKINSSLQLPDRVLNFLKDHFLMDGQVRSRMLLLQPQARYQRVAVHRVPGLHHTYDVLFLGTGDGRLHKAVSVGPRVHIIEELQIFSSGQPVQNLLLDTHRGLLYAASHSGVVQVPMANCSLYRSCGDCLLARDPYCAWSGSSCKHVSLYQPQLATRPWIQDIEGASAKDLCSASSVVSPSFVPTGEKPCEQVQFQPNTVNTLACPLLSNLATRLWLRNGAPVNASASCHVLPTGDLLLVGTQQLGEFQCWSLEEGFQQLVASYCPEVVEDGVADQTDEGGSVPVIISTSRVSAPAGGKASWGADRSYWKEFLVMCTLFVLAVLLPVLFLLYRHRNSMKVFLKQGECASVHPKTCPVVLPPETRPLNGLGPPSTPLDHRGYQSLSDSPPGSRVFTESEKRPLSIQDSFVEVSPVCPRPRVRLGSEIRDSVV
# T3: human SEMA4A expressed on cells (UniProt ID Q9H3S1, isoform 1) (human, UniProt Q9H3S1 33-761)
# T3 sequence: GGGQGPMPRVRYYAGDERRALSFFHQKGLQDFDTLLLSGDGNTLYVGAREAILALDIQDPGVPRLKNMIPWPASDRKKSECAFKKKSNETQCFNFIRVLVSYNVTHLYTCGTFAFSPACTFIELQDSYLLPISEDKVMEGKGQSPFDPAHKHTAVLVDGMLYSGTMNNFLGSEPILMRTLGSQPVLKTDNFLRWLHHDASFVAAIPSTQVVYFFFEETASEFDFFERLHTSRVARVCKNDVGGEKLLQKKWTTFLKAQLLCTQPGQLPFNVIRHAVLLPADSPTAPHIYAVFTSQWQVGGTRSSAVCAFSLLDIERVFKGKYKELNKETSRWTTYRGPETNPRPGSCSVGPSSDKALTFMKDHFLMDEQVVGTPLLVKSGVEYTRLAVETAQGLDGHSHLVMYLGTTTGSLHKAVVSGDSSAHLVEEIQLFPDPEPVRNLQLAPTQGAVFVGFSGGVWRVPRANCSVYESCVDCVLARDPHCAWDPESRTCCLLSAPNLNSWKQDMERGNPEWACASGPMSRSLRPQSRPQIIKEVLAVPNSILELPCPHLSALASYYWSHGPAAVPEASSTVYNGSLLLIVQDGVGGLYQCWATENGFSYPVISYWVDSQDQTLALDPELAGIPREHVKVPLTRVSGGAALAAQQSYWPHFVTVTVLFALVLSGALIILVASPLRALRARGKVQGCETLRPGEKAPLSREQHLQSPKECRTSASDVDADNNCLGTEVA
# Legend:
# [1] = biological target: T1, mouse SEMA4A expressed on expi293 cells …; assay: Mirrorball direct binding, dilution series on expi293 cells transiently transfected with mouse SEMA4A, anti-human Alexa Fluor 647
# From the text: (§1) Hits from the primary screening were re-formatted into the human Alya IgG1 vector and re-expressed and purified as described in section 4.1. In addition, a single clone was identified that contained an Asparagine deamidation motif (Asn Gly) within its VHCDR2. This potential sequence liability was de-risked by synthesising de novo two clonal variant VH genes (Asn Ala and Gln Gly) and cloning these sequences into the human Alya IgG1 expression vector. To determine the specificity profile of each purified human Alya IgG1, a dilution series was tested for binding to human SEMA4A, mouse SEMA4A, cyno SEMA4A, human SEMA4B and mock transfected cells (transient transfections set up in expi 293 cells.) The five assays employed methods described in section 2.3, using the appropriate cells and substituting the un-purified scFv periplasmic preparation with the recombinant human Alya IgG1 dilution series. Data was analysed as Count x median mean intensity (x FLU).
# [2] = biological target: T2, human SEMA4B expressed on expi293 cells; assay: Mirrorball direct binding, dilution series on expi293 cells transiently transfected with human SEMA4B, anti-human Alexa Fluor 647
# From the text: as §1
# [3] = biological target: T2, human SEMA4B expressed on expi293 cells; assay: as above; remark: listed apart in the source
# Protocol: To determine the specificity profile of each purified human Alya IgG1 conjugated to McMMAF, a dilution series was tested for binding to human SEMA4A, human SEMA4B and mock transfected cells (transient transfections set up in expi 293 cells.) The three assays employed methods described in section 2.3, using the appropriate cells and substituting the un-purified scFv periplasmic preparation with the human Alya IgG1 conjugated to McMMAF. Data was analysed as Count x median mean intensity (x FLU).
# [4] = biological target: T3, human SEMA4A expressed on cells …; assay: cell-based or functional assay
# [5] = biological target: T3, human SEMA4A expressed on cells …; assay: cell-based or functional assay; remark: listed apart in the source
# [6] = biological target: T3, human SEMA4A expressed on cells …; assay: cell-based or functional assay; remark: listed apart in the source
Binder,binding result [1],binding result [3],"Average KARPAS 25 IC50 [pM], cell kill [4]","Average MM1.S IC50 [pM], cell kill [4]","Average NCI-H929 IC50 [pM], cell kill [4]",also measured
"C0120913 (antibody, V domains shown, 239iCys and S442C (EU numbering) in the constant region, purified, unconjugated; also called C0120913 human Alya IgG1 (unconjugated)) VH: QVQLVQSGAEVKKPGESLKISCKGSGYSFTSYWVGWVRQMPGKGLEWMGIIYPGDSDARYGPSFQGQVTISADKSINTAYLQWNSLKASDTATYYCARLGDGAYYYYLDVWGRGTMVTVSS VL: SYELTQPPSVSESPGRTVTISCSGSSGSIASNFVHWYQQRPGSAPTTVIYEDDQRPSGVPDRFSGSIDSSSNSASLTISGLKTEDEADYYCQSYDNNDHAVFGGGTKLTVL",binds,,,,,
"C0120919 (antibody, V domains shown, 239iCys and S442C (EU numbering) in the constant region, purified, unconjugated; also called C0120919 human Alya IgG1 (unconjugated)) VH: not shown VL: QSALTQPPSVSVSSGQTASITCSGDKLGDKYASWYQQKPGQSPVLVIYQDTKRPSEIPERFSGSNSGNTATLTISGTQAMDEADYYCQAWDSSLVFGGGTKVTVL",binds,,,,,binding result [2]: no binding (tested: log (M) -8 (1e-8 M))
"5Hg1-5Lg2 human Alya IgG1 conjugated to McMMAF (antibody, V domains shown, McMMAF on the engineered cysteines 239iCys and S442C (EU numbering) of the heavy constant region, Antibody-drug conjugate; human IgG1 Alya constant) VH: QVQLVQSGAEVKKPGASVKVSCKASGYTFTDYWMHWVRQAPGQGLEWMGAIDTSDSYTSYNQKFKGRVTMTRDTSTSTVYMELSSLRSEDTAVYYCARDYGNFYYYAMDYWGQGTLVTVSS VL: QAVVTQEPSLTVSPGGTVTLTCRSSTGAVTTSNYANWFQQKPGQAPRTLIYGTNNRAPWTPARFSGSLLGGKAALTLLGAQPEDEAEYYCALWYSNHWVFGGGTKLTVL",,no binding (tested: log (M) -8 (1e-8 M)),317 pM,15.8 pM,59.4 pM,"EC50 (nM), Fab-pHast internalisation into NCI-H929 [5]: 0.75 nM; Fold-Change at 6 hours (10 nM), Fab-pHast internalisation [5]: 150 fold"
"5Hg2-5Lg3 human Alya IgG1 conjugated to McMMAF (antibody, V domains shown, McMMAF on the engineered cysteines 239iCys and S442C (EU numbering) of the heavy constant region, Antibody-drug conjugate; human IgG1 Alya constant) VH: QVQLVQSGAEVKKPGASVKVSCKASGYTFTDYWMHWVRQAPGQRLEWMGAIDTSDSYTSYNQKFKGRVTITRDTSASTAYMELSSLRSEDTAVYYCARDYGNFYYYAMDYWGQGTLVTVSS VL: QTVVTQEPSFSVSPGGTVTLTCRSSTGAVTTSNYANWYQQTPGQAPRTLIYGTNNRAPGVPDRFSGSILGNKAALTITGAQADDESDYYCALWYSNHWVFGGGTKLTVL",,no binding (tested: log (M) -8 (1e-8 M)),316 pM,102 pM,863 pM,
"5Hg2-5Lg1 human Alya IgG1 conjugated to McMMAF (antibody, V domains shown, McMMAF on the engineered cysteines 239iCys and S442C (EU numbering) of the heavy constant region, Antibody-drug conjugate; human IgG1 Alya constant) VH: QVQLVQSGAEVKKPGASVKVSCKASGYTFTDYWMHWVRQAPGQRLEWMGAIDTSDSYTSYNQKFKGRVTITRDTSASTAYMELSSLRSEDTAVYYCARDYGNFYYYAMDYWGQGTLVTVSS VL: QAVVTQEPSLTVSPGGTVTLTCRSSTGAVTTSNYANWFQQKPGQAPRTLIYGTNNRAPWTPARFSGSLLGGKAALTLSGAQPEDEAEYYCALWYSNHWVFGGGTKLTVL",,no binding (tested: log (M) -8 (1e-8 M)),228 pM,11.8 pM,33.6 pM,"EC50 (nM), Fab-pHast internalisation into NCI-H929 [5]: 0.62 nM; Fold-Change at 6 hours (10 nM), Fab-pHast internalisation [5]: 144 fold"
"C0120910 human Alya IgG1 conjugated to McMMAF (antibody, V domains shown, McMMAF on the engineered cysteines 239iCys and S442C (EU numbering) of the heavy constant region, Antibody-drug conjugate; human IgG1 Alya constant) VH: QVQLVESGGGVVQPGRSLRLSCEASEFTFSNYAMHWVRQAPDKGLEWVAGILYDGATAHYADSVKGRFTISRDNSKNTLYLQINSLRAEDTAVYYCARAHYYDYWSGLSFEYWGRGTLVTVSS VL: QSVLTQPPSASVSPGQTASIPCSGDDLGDKYIYWYQQKPGQSPVLVIYQDSRRPPGIPERFSGSNSGNTATLTISGTQPMDEADYYCQTWDTSSASAVFGGGTKVTVL",,no binding (tested: log (M) -8 (1e-8 M)),,,,"Average MM1.S IC50 [pM], cell kill [6]: 7490 pM; Average NCI-H929 IC50 [pM], cell kill [6]: 3990 pM"
"C0120910 (antibody, V domains shown, 239iCys and S442C (EU numbering) in the constant region, purified, unconjugated; also called C0120910 human Alya IgG1 (unconjugated)) VH: QVQLVESGGGVVQPGRSLRLSCEASEFTFSNYAMHWVRQAPDKGLEWVAGILYDGATAHYADSVKGRFTISRDNSKNTLYLQINSLRAEDTAVYYCARAHYYDYWSGLSFEYWGRGTLVTVSS VL: QSVLTQPPSASVSPGQTASIPCSGDDLGDKYIYWYQQKPGQSPVLVIYQDSRRPPGIPERFSGSNSGNTATLTISGTQPMDEADYYCQTWDTSSASAVFGGGTKVTVL",binds,,,,,
"C0120904 human Alya IgG1 conjugated to McMMAF (antibody, V domains shown, McMMAF on the engineered cysteines 239iCys and S442C (EU numbering) of the heavy constant region, Antibody-drug conjugate; human IgG1 Alya constant) VH: not shown VL: SYELTQPPSVSVSPGQTATISCSGNKLGDGYVSWYQQKPGQSPVLVIYQDSKRPSGIPQRYSGSNSGNTATLTISGTQAIDEADYYCQAWDSSTVVFGGGTKVTVL",,no binding (tested: log (M) -8 (1e-8 M)),,,,"Average MM1.S IC50 [pM], cell kill [6]: 1490 pM; Average NCI-H929 IC50 [pM], cell kill [6]: 18100 pM"
"C0120904 (antibody, V domains shown, 239iCys and S442C (EU numbering) in the constant region, purified, unconjugated; also called C0120904 human Alya IgG1 (unconjugated)) VH: not shown VL: SYELTQPPSVSVSPGQTATISCSGNKLGDGYVSWYQQKPGQSPVLVIYQDSKRPSGIPQRYSGSNSGNTATLTISGTQAIDEADYYCQAWDSSTVVFGGGTKVTVL",binds,,,,,binding result [2]: no binding (tested: log (M) -8 (1e-8 M))
